Here are results for 10 molecules from US20040254351A1 (published 2004).

The target of this experiment is T1, G-CSF receptor.
T1 sequence (Q99062 whole entry, species assumed, looked up): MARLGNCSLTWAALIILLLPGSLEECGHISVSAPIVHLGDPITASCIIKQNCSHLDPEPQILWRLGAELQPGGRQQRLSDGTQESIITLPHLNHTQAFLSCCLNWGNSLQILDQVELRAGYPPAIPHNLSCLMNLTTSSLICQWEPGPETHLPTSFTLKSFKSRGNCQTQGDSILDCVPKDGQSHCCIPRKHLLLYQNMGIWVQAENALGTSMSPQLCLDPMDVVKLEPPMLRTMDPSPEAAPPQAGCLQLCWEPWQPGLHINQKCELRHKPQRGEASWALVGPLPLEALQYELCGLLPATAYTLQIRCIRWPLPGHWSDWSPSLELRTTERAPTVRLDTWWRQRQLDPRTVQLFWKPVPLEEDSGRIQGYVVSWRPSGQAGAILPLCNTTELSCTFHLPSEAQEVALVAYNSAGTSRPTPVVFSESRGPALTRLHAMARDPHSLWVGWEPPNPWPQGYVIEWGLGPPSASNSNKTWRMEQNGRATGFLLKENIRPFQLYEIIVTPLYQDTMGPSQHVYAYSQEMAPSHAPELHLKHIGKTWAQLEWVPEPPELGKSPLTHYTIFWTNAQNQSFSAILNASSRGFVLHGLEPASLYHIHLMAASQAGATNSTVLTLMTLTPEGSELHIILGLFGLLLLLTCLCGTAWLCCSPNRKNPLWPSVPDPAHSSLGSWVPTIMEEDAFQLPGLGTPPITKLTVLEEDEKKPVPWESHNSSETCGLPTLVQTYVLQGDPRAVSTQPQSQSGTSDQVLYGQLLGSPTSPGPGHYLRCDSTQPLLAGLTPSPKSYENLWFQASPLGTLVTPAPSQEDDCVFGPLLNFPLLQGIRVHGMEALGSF
The experiment is described as follows: cell-based or functional assay.

Positions count from the first letter of the chain named. Names and notes keep the numbering of the source.

B1: G-CSF[E93N,I95T] (ligand)
chain: TPLGPASSLPQSFLLKALEQVRKIQGDGAALQEKLCATYKLCHPEELVLLGHSLGIPWAPLSSCPSQALQLAGCLSQLHSGLFLYQGLLQALNGTSPELGPTLDTLQLDVADFATTIWQQMEELGMAPALQPTQGAMPAFASAFQRRAGGVLVASHLQSFLEVSYRVLRHLAQP
modifications: consensus N-linked glycosylation site at Asn 93 (region 10)
For B1, the “EC50/Neupogen (reporter activity in cells expressing the G-CSF receptor)” value (“EC50/Neupogen” for short) was 0.36 ratio to Neupogen.

B2: G-CSF[A37N,Y39T,P57V,W58N,P60T,Q67N,L69T] (ligand)
chain: B1 chain with A37N, Y39T, P57V, W58N, P60T, Q67N, L69T, N93E, T95I
modifications: consensus N-linked glycosylation sites at Asn 37, Asn 58 and Asn 67 (regions 1, 2 and 9)
As for B2, the “EC50/Neupogen” value was 0.53 ratio to Neupogen.

B3: G-CSF[A37N,Y39T] (ligand)
chain: B1 chain with A37N, Y39T, N93E, T95I
modifications: consensus N-linked glycosylation site at Asn 37 (region 1)
With B3, the “EC50/Neupogen” value was 0.8 ratio to Neupogen.

B4: G-CSF[A37N,Y39T,S63N,P65T,E93N,I95T] (ligand)
chain: B1 chain with A37N, Y39T, S63N, P65T
modifications: consensus N-linked glycosylation sites at Asn 37, Asn 63 and Asn 93 (regions 1, 7 and 10)
With B4, the “EC50/Neupogen” value is 0.97 ratio to Neupogen.

B5: G-CSF[P57V,W58N,P60T] (ligand)
chain: B1 chain with P57V, W58N, P60T, N93E, T95I
modifications: consensus N-linked glycosylation site at Asn 58 (region 2)
For the molecule B5, the “EC50/Neupogen” value is 0.59 ratio to Neupogen.

B6: G-CSF[T133N,G135T] (ligand)
chain: B1 chain with N93E, T95I, T133N, G135T
modifications: consensus N-linked glycosylation site at Asn 133 (region 13), replacing the O-linked site
With B6, the “EC50/Neupogen” value was 0.37 ratio to Neupogen.

B7: G-CSF[P60N,S62T] (ligand)
chain: B1 chain with P60N, S62T, N93E, T95I
modifications: consensus N-linked glycosylation site at Asn 60 (region 4)
Turning to B7, the “EC50/Neupogen” value was 0.94 ratio to Neupogen.

B8: G-CSF[A141N,A143T] (ligand)
chain: B1 chain with N93E, T95I, A141N, A143T
modifications: consensus N-linked glycosylation site at Asn 141 (region 14)
As for B8, the “EC50/Neupogen” value is 0.54 ratio to Neupogen.

B9: G-CSF[Q67N,L69T] (ligand)
chain: B1 chain with Q67N, L69T, N93E, T95I
modifications: consensus N-linked glycosylation site at Asn 67 (region 9)
Regarding B9, the “EC50/Neupogen” value is 0.78 ratio to Neupogen.

B10: G-CSF[S63N,P65T] (ligand)
chain: B1 chain with S63N, P65T, N93E, T95I
modifications: consensus N-linked glycosylation site at Asn 63 (region 7)
Take B10: the “EC50/Neupogen” value is 0.9 ratio to Neupogen.
